In the DeepSol protein solubility set:

Experiment: soluble on expression in E. coli; label from the status in PepcDB or PDB records

Row | Sequence | soluble on expression in E. coli
1 | MRGPAPMPDTSLSTFLARPAPTILVEIEAVKGSSPREAGTFMLVSQEALWETIGGGQFEYMAIDHARAMLRTGAAEDRMDIPLGPEIGQCCGGRTLIRFRLITAEIAATLEARLKGEAEQQPAVFIFGAGHVGKALADALSLLPLTLKVVETRESELRDIPAGIASILTPMPEAFVQKIPANGAAIIVTHDHALDFLIAKEALARDDLAYVGMIGSKTKRATFAHWLEREGEPPSRLAKLTLPIGGTGVRDKRPAVIAALVAAELLQAFSVAETRRSENRHDHPQGQDRA | not soluble
2 | MMKIIAFVGMPASGKSEASRIAAEMGIPVIIMGDVIRKEVLKRGLEPNDSNTGMVATDLRKHEGMGAVARRCISQIRETGSELVVVDGVRGIAEVECFRKEFGKGFILISIYAPIEVRFSRVQKRGRSDDMNSIEGLRHRDERELSWGMGEAIDASNVEIENNFTLETFRKDVRDVLSNYLEADLEK | not soluble
3 | MFVVPRRLSSFLSLVHEYRHLARRSYVMETPSIDIQNIRAKYLNSHDPYLLESKLPTTSPFELFDIWFRNVASQSDLTFEEINAVSLSTVGKDLRPSSRMVLLKAYTPTGFSFYTNYTSRKGNQLEENPNAAMLFYWPKVNRQIRVEGVVEKLPDEMAVAYWNSRPVASRIGSKSSDQSKVVPDREFLESKKVALTELSVREGAQAITKPESWGGYHLIPRYFEFWQGQSDRLHDRIVFERDVDVWLLKRLSP | not soluble
4 | MLAKRSIALTAATLLREPILRREDIADSLLARDILADARQQATQILALEQEKAEHLQQQALAQFWENANAFLGELQVQREALQEQAMTAVEELLSESLRHLLDDTTLAERARALARNLAASQLNEAVATLSVHPQIADAVAEWLADSRFSEHWQLKRDATIASDSLRLSDANGAFDIAWADLRKGLLGVEPAA | not soluble
5 | NKNFTWTSNFNLTYQRALVDKLPEGKDIQYGDGEMYLHREGESMYTFYLPEWKGVNPETGLGEFWLDPEDHSKGVVNDYSEAGKGIVGKALPDVIGGFSNTFTYKDFDLSFLITYQFGGDMFDYPGYFSHHDGVRIGSMNLSEDVAGNYWKNPGDKVDNPMPIYANPYRWDRFSSRTIKSTDNIRLREMTVGYTLPVLKKHISNFRIYFRANNLAMLWSKTKNIDPDVAINGYRQADTPALRSCVFGINIKL | not soluble
6 | MCEFKDFRRNIPCFKEYDENSFIGKWYDDGVWDDEEYWKLENDLIEVRKKYPYPMDIPRDIVIGIGTIIDFLMVQNWKLFEIKASTWLPKSVKINERYERFRVMLRYIFTDLDVEDWKFFYFPIQHSKGRLRRKV | not soluble
7 | MSLSDLITLAQLSQGYRYNSDSLILADFILKQGIKGAVFDVGAGCGIIGILLKKNIANLSLSLIDIQKENIELIEKNLKSNKIQGDIFHDDFNQFQIIKKFDFIVCNPPFYRQGAYKSEDQHKAISKFQEFLPLHSFLAKTNSMLKPNGTLYFCYEALALDEICFILKDMKMKITKLCFVHTHQSKKARLVLIQVKKGSKSPCEILPPFFVYENEILSKQMQEIHLRFRLKSYDEGHHHHHH | soluble
8 | MAHHHHHHMSLNLTDAADDRSYKEMEKYTVERVAGQGTFGTVQLARDKSTGSLVAIKKVIQDPRFKNRELQIMQHLARLRHPNIVMLKNYFYTVGGEGRRNDVYLNVVMEFVPETLHRTCRNYYRRMTNPPLILVKVFMFQLLRSIACLHIPVINICHRDIKPHNVLVDEQTGELKLCDFGSAKRLAADEPNVAYICSRYYRAPELIFGNQFYTTAVDIWSVGCIFAEMLLGEPIFCGENTSGQLREIVKILGKPTKEELHKLNGSSTEINANAKATPWENVFKQPLPAEVYDLCGKIFKYVPDQRITPLDALCHPFFNELREPTTKLPSGNPLPAHLYQFTPDEVEAMTEAQREYLLKK | not soluble
9 | MGSDKIHHHHHHMLKEAISYSIADESVRIVQVTDPHLFADPEAQLLGVNTSKSLAAVLNTIRAVNYPAHLLLATGDLSQDYSPESYRQFVSAVAPLNLPCHYLPGNHDDPRIMFLHMQGERVFGQQRILVGKWQILMLDSTVRGKPGGHMGEGQFELIEQAIAAHPEHHTLLVMHHNPILVNCAWLDQHCMDNGAEFLRRVAQYPQVKALLWGHVHQQLDTYYDGPHRALQLMATPSTCIQFKPQSPYFALDGLQPGYRLLELKADGSISTNVYRVPGNLFSPDKDSSGY | not soluble
10 | MGSDKIHHHHHHMKSDLELKHDVDQELLWDPALDARNVTATVLNRIVTLEGSVNSCAQKLALQKAVQRVAGSRAVVLDLVVRAPSPLRHTDEDLAAAIVSALQWQEGLPEDAIRVVVEHGCVTLTGEVDYGFQRQMAEVLVSRMRGVVGVANQIEVRIDPVAADVSKHIAEALQRRSRRESGGISVDVHDGVVRLTGVADSLLESVWPAASPGAPRACGGWSTSWSSHESRRLALHAFPSCLNQL | not soluble
11 | VGSFYGQYLSIRKTEALLRNELNALTPATVMELADKLPEKSSSLVISYIRQVLQAHESPAQIQRLLANFEIAADKDLAISKTLTKLGP | not soluble
12 | AVIGMNEAASALTPSRVSSLPDTQRAAWQEYLARSEAQLSRDKASLAAELAPGQPLPPPPAEGKGADTMPLDKPAAWYTSKAARHVADVIVSFQTPAGGWGKNQPRDGALRLPGQHYTGENVAKVKSGSNDLDAARDRDWHYVGTIDNDATVTEIRFLAQVVSQLAPEEAAPYRDAALKGIEYLLASQFPNGGWPQVWPLEGGYHDAITYNDDALVHVAELLSDIAAGRDGFGFVPPAIRTRALEATNAAIHCIVETQVVQDGKRLGWGQQHDALTLRPTSARNFEPAALSSTESARILLFLMEIEAPSDAVKQAIRGGVAWLNTSVIRDRAWVKSDQGYQLVTEQGAKPLWSRFYSLDGNKPVFGDRDKTIHDDVMGISQERRTGYAWYTTSPQKALSAFTKWEKRS | soluble
13 | MIIVHHLNNSRSQRILWLLEELGLPYEIKRYQRDPKTNLAPPELKAIHPLGKSPVIEDGPHVVIESGAIVDYLIRRHGDGRLQPDPASATYDEYVQWLHFAEGSAILPLMLNLYVGRLGDAGAPLHPRIHSELANYLGYLNEALGLTPYLLGDELSGADIQMSFIGEFAKMQGMLQPHPNLAAWVQRCQERPAYRQALEQGGEYSFAK | not soluble
14 | MSLRFLADIEEYIGFEIPKIEAPSQEEVARKKPEFLAKLNDRPESKKDKSEELNKDIMKLYFNGGKKKKIRAVDFVGTIAKIDGVSADDIGIITIMDNASYVEILNGKGPHVLKVMKNTTVKGKQLKVNKANKEGHHHHHH | not soluble
15 | MTGTERKVFQKYYPPDFDPSKIPRAKGQKNRQFVQRVMTPFNMQCNTCHEYIYKGKKFNMKRETAEGETYLGLKLFRFYFRCPNCLAEITFKTDLENCDYQNEHGATRLFEAVKLYQDQQKQVDEQEAEDAKDPMKMLEKRTMQSRQEMEEMGNLEDLQESSRTKECIDTIGFLSSTDPHIAQAQRIKMMEDEDDRMARELMGITSEGRIERRIKDDEDNSDGADEDDKDIPGPSASVVPSTSSMLKPAIPKLGMDDSGNSRKRNEQRDRFAGIKLIKKAKPSEPSTSSTASSTSSAPPPLPSSAASSGLSLLADYGSGSDSD | not soluble
16 | MGSDKIHHHHHHMFTSFAFVTGAFVLFGCDNGRNSDTICKNNPELCEDLHKDSWCRYEKGDLIRQRFILKTTPNPTGKQIYDQLRFLEVYSKCIELASGVQHKVNVQRTNDRLRAFGISVQNLEELQESTKGSQDPYLAYYHWSRLDDAKSLAVLIKAEKEGQISDPELLSKLAIYYLKTDAARAKKLYLDVLGMVDADHLDPDWLLGLATASRTLGDLDGSYLYSRANIALTKQSVNEAQMLALLTGDKTKAAMLDSEAEQLAKAVSSGNFAGSAIEKRLRAEIDTERAKIEPVAPLAQD | not soluble
17 | MGSDKIHHHHHHMMKAQFTLTPSESKRLIAKGVKALPILRKALQNHTIILAGGTTNGFLVEELLNETLAEKTRYTVGLIADGKTGESKEEQRIPPFIIAKGKALDRSLHWKDFLPQLEPGDVFIKGGNALDSTGLAAVLVSNSMAGTIGAALGPLYARGVRLVVPIGLEKLIPDVREAVEFMASAPADTALGAKTGLVPMLGATVVTEITALETLYQVTAKCIGAGGVAGSEGAVTLVIEGEAAEVESALSLIQSCKGEPPVR | not soluble
18 | MPAPDPMRGDPPHPAPPRLRSPLDPTSGDPLHPAPPRLRSPLDPTSGDPLHPAPPRLRSPLDPTSGDPLHPAPPRLRSPLVLLDGASMWFRSFFGVPSSITAPDGRPVNAVRGFIDSMAVVITQQRPNRLAVCLDLDWRPQFRVDLIPSYKAHRVAEPEPNGQPDVEEVPDELTPQVDMIMELLDAFGIAMAGAPGFEADDVLGTLATRERRDPVIVVSGDRDLLQVVADDPVPVRVLYLGRGLAKATLFGPAEVAERYGLPAHRAGAAYAELALLRGDPSDGLPGVPGVGEKTAATLLARHGSLDQIMAAADDRKTTMAKGLRTKLLAASAYIKAADRVVRVATDAPVTLSTPTDRFPLVAADPERTAELATRFGVESSIARLQKALDTLPG | not soluble
19 | MAAGTFTAQNKVRPGVYINFKSEPQAAGTLGERGIVSMPLILSWGEPGKMITIEAGDDVFPKLGYSIMDAQLRLINEALKRAKTLLLYRLNAGTKAAVTVGNLTVTAKWGGARGNDITLVIQENIDDETKFDVSTLVDGAELDKQTVSDIAGLAANDWVIFSGTGALTETAGAPLINGSDGAVTNQAYIDYLAAVEIFDFNTIALPSTDDALKATFTAFAKRLRDDEGKKIQVVLENYPAADYEGVISVKNGVVLADGTILTAAQATAWVAGATAGARVNESLTYQGYDEAVDVAPRYTNAQIIAALQAGEFLFTASDNQALVEQDINTLTSFTADKGKQFAKNRVIRVLDGINNDFVRIFSKFYIGKVSNNADGRNLLKSECINYMNTLQDIDAIKNFDGQTDLTVQSGNDVDAVYIEAYAWPVDSIEKIYVRVRIKLEHHHHHH | soluble
20 | MGHHHHHHMAGGGKHTPTPKAIIHQKFGAKASYTVEEVHDSSQSGCPGLAIPQKGPCLYRCHLQLPEFSVVSNVFKKKKDSEQSAAELALDKLGIRPQNDDLTVDEARDEIVGRIKYIFSDEFLSAEHPLGAHLRAALRRDGERCGSVPVSVIATVDAKINSRCKIINPSVESDPFLAISYVMKAAAKLADYIVASPHGLRRKNAYPSEIVEALATHVSDSLHSREVAAVYIPCIDEEVVELDTLYISSNRHYLDSIAERLGLKDGNQVMISRMFGKASCGSECRLYSEIPKKYLDNSSDASGTSNEDSSHIVKSRNARASYICGQDIHGDAILASVGYRWKSDDLDYDDVTVNSFYRICCGMSPNGIYKISRQAVIAAQLPFAFTTKSNWRGPLPREILGLFCHQHRLAEPILSSSTAPVKSLSDIFRSHKKLKVSGVDDANENLSRQKEDTPGLGHGFRCEVKIFTKSQDLVLECSPRKFYEKENDAIQNASLKALLWFSKFFADLDVDGEQSCDTDDDQDTKSSSPNVFAAPPILQKEHSSESKNTNVLSAEKRVQSITNGSVVSICYSLSLAVDPEYSSDGESPREDNESNEEMESEYSANCESSVEPIESNEEIEFEVGTGSMNPHIESEVTQMTVGEYASFKMTPPDAAEALILAVGSDTVRIRSLLSERPCLNYNILLLGVKGPSEERMEAAFFKPPLSKQRVEYALKHIRESSASTLVDFGCGSGSLLDSLLDYPTSLQTIIGVDISPKGLARAAKMLHVKLNKEACNVKSATLYDGSILEFDSRLHDVDIGTCLEVIEHMEEDQACEFGEKVLSLFHPKLLIVSTPNYEFNTILQRSTPETQEENNSEPQLPKFRNHDHKFEWTREQFNQWASKLGKRHNYSVEFSGVGGSGEVEPGFASQIAIFRREASSVENVAESSMQPYKVIWEWKKEDVEKKKTDL | soluble
21 | MKQYGFYVDSSRCSGCKTCQVSCKDNKDLDVGPKLRRVYEYGGGSWVKEGESWHHDTFTYYLSIACNHCDEPVCVSGCPTGAMHKRKEDGLVVVDDSVCVGCRYCEMRCPYGAPQFDTQANVMRKCDGCLDRLENNLRPICVDSCPQRALDFGPVDELRAKYGTENQIAPLPSASFTHPNLIIKPHPKARPTGDTEGAIMNIREVRHA | not soluble
